Assay [1] addresses Herceptin. The assay is described as follows: inhibition ELISA: herceptin preincubated with KLH alone, binding to SKBR3 membranes (Her-2/neu).
In assay [2] the target is Herceptin. The assay is described as follows: inhibition ELISA: herceptin preincubated with wild-type phage, binding to SKBR3 membranes (Her-2/neu).

With KLH (from UniProt Q10583 17-3414), in the assay with Herceptin [1], the Percent inhibition in comparison to uninhibited herceptin control is 0%. Wild-type phage returned a Percent inhibition in comparison to uninhibited herceptin control in the assay with Herceptin [2] of 3%.

The values above are taken from US20050100551A1.
